Measurements reported in patent US20260049138A1 (Chugai, published 2026).

B1: GLS3000 R29I one-arm antibody (antibody, human IgG1, kappa, L234A L235A, N297A, name in Kabat numbering)
heavy: QVQLVESGGGVVQPGRSLRLSCAASGFTFSNAWMHWVRQAPGKGLEWVAQIKAKSNNYATYYAESVKGRFTISRDDSKNSLYLQMNSLKTEDTAVYYCRYVHYGAYYGVDAWGQGTTVTVSSASTKGPSVFPLAPSSKSTSGGTAALGCLVKDYFPEPVTVSWNSGALTSGVHTFPAVLQSSGLYSLSSVVTVPSSSLGTQTYICNVNHKPSNTKVDKKVEPKSCDKTHTCPPCPAPEAAGGPSVFLFPPKPKDTLMISRTPEVTCVVVDVSHEDPEVKFNWYVDGVEVHNAKTKPREEQYASTYRVVSVLTVLHQDWLNGKEYKCKVSNKALPAPIEKTISKAKGQPREPQVYTLPPSRCELTKNQVSLSCAVKGFYPSDIAVEWESNGQPENNYKTTPPVLDSDGSFFLVSKLTVDKSRWQQGNVFSCSVMHEALHNHYTQKSLSLSPDYKDDDDK
chain: EPKSSDKTHTCPPCPAPELLGGPSVFLFPPKPKDTLMISRTPEVTCVVVDVSHEDPEVKFNWYVDGVEVHNAKTKPREEQYNSTYRVVSVLTVLHQDWLNGKEYKCKVSNKALPAPIEKTISKAKGQPREPQVCTLPPSRDELTKNQVSLWCLVKGFYPSDIAVEWESNGQPENNYKTTPPVLDSDGSFFLYSKLTVDKSRWQQGNVFSCSVMHEALHNRYTQKSLSLSP
light: DIVMTQSPLSLPVTPGEPASISCRSSQSLVHSNINTYLHWYQQKPGQAPRLLIYKVSNRFSGVPDRFSGSGSGTDFTLKISRVEAEDVGVYYCGQGTQVPYTFGQGTKLEIKRTVAAPSVFIFPPSDEQLKSGTASVVCLLNNFYPREAKVQWKVDNALQSGNSQESVTEQDSKDSTYSLSSTLTLSKADYEKHKVYACEVTHQGLSSPVTKSFNRGEC
B2: GLS3000 R29P one-arm antibody (antibody, human IgG1, kappa, L234A L235A, N297A, name in Kabat numbering)
heavy: QVQLVESGGGVVQPGRSLRLSCAASGFTFSNAWMHWVRQAPGKGLEWVAQIKAKSNNYATYYAESVKGRFTISRDDSKNSLYLQMNSLKTEDTAVYYCRYVHYGAYYGVDAWGQGTTVTVSSASTKGPSVFPLAPSSKSTSGGTAALGCLVKDYFPEPVTVSWNSGALTSGVHTFPAVLQSSGLYSLSSVVTVPSSSLGTQTYICNVNHKPSNTKVDKKVEPKSCDKTHTCPPCPAPEAAGGPSVFLFPPKPKDTLMISRTPEVTCVVVDVSHEDPEVKFNWYVDGVEVHNAKTKPREEQYASTYRVVSVLTVLHQDWLNGKEYKCKVSNKALPAPIEKTISKAKGQPREPQVYTLPPSRCELTKNQVSLSCAVKGFYPSDIAVEWESNGQPENNYKTTPPVLDSDGSFFLVSKLTVDKSRWQQGNVFSCSVMHEALHNHYTQKSLSLSPDYKDDDDK
chain: EPKSSDKTHTCPPCPAPELLGGPSVFLFPPKPKDTLMISRTPEVTCVVVDVSHEDPEVKFNWYVDGVEVHNAKTKPREEQYNSTYRVVSVLTVLHQDWLNGKEYKCKVSNKALPAPIEKTISKAKGQPREPQVCTLPPSRDELTKNQVSLWCLVKGFYPSDIAVEWESNGQPENNYKTTPPVLDSDGSFFLYSKLTVDKSRWQQGNVFSCSVMHEALHNRYTQKSLSLSP
light: DIVMTQSPLSLPVTPGEPASISCRSSQSLVHSNPNTYLHWYQQKPGQAPRLLIYKVSNRFSGVPDRFSGSGSGTDFTLKISRVEAEDVGVYYCGQGTQVPYTFGQGTKLEIKRTVAAPSVFIFPPSDEQLKSGTASVVCLLNNFYPREAKVQWKVDNALQSGNSQESVTEQDSKDSTYSLSSTLTLSKADYEKHKVYACEVTHQGLSSPVTKSFNRGEC
B3: GLS3000 R29V one-arm antibody (antibody, human IgG1, kappa, L234A L235A, N297A, name in Kabat numbering)
heavy: QVQLVESGGGVVQPGRSLRLSCAASGFTFSNAWMHWVRQAPGKGLEWVAQIKAKSNNYATYYAESVKGRFTISRDDSKNSLYLQMNSLKTEDTAVYYCRYVHYGAYYGVDAWGQGTTVTVSSASTKGPSVFPLAPSSKSTSGGTAALGCLVKDYFPEPVTVSWNSGALTSGVHTFPAVLQSSGLYSLSSVVTVPSSSLGTQTYICNVNHKPSNTKVDKKVEPKSCDKTHTCPPCPAPEAAGGPSVFLFPPKPKDTLMISRTPEVTCVVVDVSHEDPEVKFNWYVDGVEVHNAKTKPREEQYASTYRVVSVLTVLHQDWLNGKEYKCKVSNKALPAPIEKTISKAKGQPREPQVYTLPPSRCELTKNQVSLSCAVKGFYPSDIAVEWESNGQPENNYKTTPPVLDSDGSFFLVSKLTVDKSRWQQGNVFSCSVMHEALHNHYTQKSLSLSPDYKDDDDK
chain: EPKSSDKTHTCPPCPAPELLGGPSVFLFPPKPKDTLMISRTPEVTCVVVDVSHEDPEVKFNWYVDGVEVHNAKTKPREEQYNSTYRVVSVLTVLHQDWLNGKEYKCKVSNKALPAPIEKTISKAKGQPREPQVCTLPPSRDELTKNQVSLWCLVKGFYPSDIAVEWESNGQPENNYKTTPPVLDSDGSFFLYSKLTVDKSRWQQGNVFSCSVMHEALHNRYTQKSLSLSP
light: DIVMTQSPLSLPVTPGEPASISCRSSQSLVHSNVNTYLHWYQQKPGQAPRLLIYKVSNRFSGVPDRFSGSGSGTDFTLKISRVEAEDVGVYYCGQGTQVPYTFGQGTKLEIKRTVAAPSVFIFPPSDEQLKSGTASVVCLLNNFYPREAKVQWKVDNALQSGNSQESVTEQDSKDSTYSLSSTLTLSKADYEKHKVYACEVTHQGLSSPVTKSFNRGEC
B4: GLS3000 R29S one-arm antibody (antibody, human IgG1, kappa, L234A L235A, N297A, name in Kabat numbering)
heavy: QVQLVESGGGVVQPGRSLRLSCAASGFTFSNAWMHWVRQAPGKGLEWVAQIKAKSNNYATYYAESVKGRFTISRDDSKNSLYLQMNSLKTEDTAVYYCRYVHYGAYYGVDAWGQGTTVTVSSASTKGPSVFPLAPSSKSTSGGTAALGCLVKDYFPEPVTVSWNSGALTSGVHTFPAVLQSSGLYSLSSVVTVPSSSLGTQTYICNVNHKPSNTKVDKKVEPKSCDKTHTCPPCPAPEAAGGPSVFLFPPKPKDTLMISRTPEVTCVVVDVSHEDPEVKFNWYVDGVEVHNAKTKPREEQYASTYRVVSVLTVLHQDWLNGKEYKCKVSNKALPAPIEKTISKAKGQPREPQVYTLPPSRCELTKNQVSLSCAVKGFYPSDIAVEWESNGQPENNYKTTPPVLDSDGSFFLVSKLTVDKSRWQQGNVFSCSVMHEALHNHYTQKSLSLSPDYKDDDDK
chain: EPKSSDKTHTCPPCPAPELLGGPSVFLFPPKPKDTLMISRTPEVTCVVVDVSHEDPEVKFNWYVDGVEVHNAKTKPREEQYNSTYRVVSVLTVLHQDWLNGKEYKCKVSNKALPAPIEKTISKAKGQPREPQVCTLPPSRDELTKNQVSLWCLVKGFYPSDIAVEWESNGQPENNYKTTPPVLDSDGSFFLYSKLTVDKSRWQQGNVFSCSVMHEALHNRYTQKSLSLSP
light: DIVMTQSPLSLPVTPGEPASISCRSSQSLVHSNSNTYLHWYQQKPGQAPRLLIYKVSNRFSGVPDRFSGSGSGTDFTLKISRVEAEDVGVYYCGQGTQVPYTFGQGTKLEIKRTVAAPSVFIFPPSDEQLKSGTASVVCLLNNFYPREAKVQWKVDNALQSGNSQESVTEQDSKDSTYSLSSTLTLSKADYEKHKVYACEVTHQGLSSPVTKSFNRGEC
B5: GLS3000 R29T one-arm antibody (antibody, human IgG1, kappa, L234A L235A, N297A, name in Kabat numbering)
heavy: QVQLVESGGGVVQPGRSLRLSCAASGFTFSNAWMHWVRQAPGKGLEWVAQIKAKSNNYATYYAESVKGRFTISRDDSKNSLYLQMNSLKTEDTAVYYCRYVHYGAYYGVDAWGQGTTVTVSSASTKGPSVFPLAPSSKSTSGGTAALGCLVKDYFPEPVTVSWNSGALTSGVHTFPAVLQSSGLYSLSSVVTVPSSSLGTQTYICNVNHKPSNTKVDKKVEPKSCDKTHTCPPCPAPEAAGGPSVFLFPPKPKDTLMISRTPEVTCVVVDVSHEDPEVKFNWYVDGVEVHNAKTKPREEQYASTYRVVSVLTVLHQDWLNGKEYKCKVSNKALPAPIEKTISKAKGQPREPQVYTLPPSRCELTKNQVSLSCAVKGFYPSDIAVEWESNGQPENNYKTTPPVLDSDGSFFLVSKLTVDKSRWQQGNVFSCSVMHEALHNHYTQKSLSLSPDYKDDDDK
chain: EPKSSDKTHTCPPCPAPELLGGPSVFLFPPKPKDTLMISRTPEVTCVVVDVSHEDPEVKFNWYVDGVEVHNAKTKPREEQYNSTYRVVSVLTVLHQDWLNGKEYKCKVSNKALPAPIEKTISKAKGQPREPQVCTLPPSRDELTKNQVSLWCLVKGFYPSDIAVEWESNGQPENNYKTTPPVLDSDGSFFLYSKLTVDKSRWQQGNVFSCSVMHEALHNRYTQKSLSLSP
light: DIVMTQSPLSLPVTPGEPASISCRSSQSLVHSNTNTYLHWYQQKPGQAPRLLIYKVSNRFSGVPDRFSGSGSGTDFTLKISRVEAEDVGVYYCGQGTQVPYTFGQGTKLEIKRTVAAPSVFIFPPSDEQLKSGTASVVCLLNNFYPREAKVQWKVDNALQSGNSQESVTEQDSKDSTYSLSSTLTLSKADYEKHKVYACEVTHQGLSSPVTKSFNRGEC
B6: GLS3000 R29L one-arm antibody (antibody, human IgG1, kappa, L234A L235A, N297A, name in Kabat numbering)
heavy: QVQLVESGGGVVQPGRSLRLSCAASGFTFSNAWMHWVRQAPGKGLEWVAQIKAKSNNYATYYAESVKGRFTISRDDSKNSLYLQMNSLKTEDTAVYYCRYVHYGAYYGVDAWGQGTTVTVSSASTKGPSVFPLAPSSKSTSGGTAALGCLVKDYFPEPVTVSWNSGALTSGVHTFPAVLQSSGLYSLSSVVTVPSSSLGTQTYICNVNHKPSNTKVDKKVEPKSCDKTHTCPPCPAPEAAGGPSVFLFPPKPKDTLMISRTPEVTCVVVDVSHEDPEVKFNWYVDGVEVHNAKTKPREEQYASTYRVVSVLTVLHQDWLNGKEYKCKVSNKALPAPIEKTISKAKGQPREPQVYTLPPSRCELTKNQVSLSCAVKGFYPSDIAVEWESNGQPENNYKTTPPVLDSDGSFFLVSKLTVDKSRWQQGNVFSCSVMHEALHNHYTQKSLSLSPDYKDDDDK
chain: EPKSSDKTHTCPPCPAPELLGGPSVFLFPPKPKDTLMISRTPEVTCVVVDVSHEDPEVKFNWYVDGVEVHNAKTKPREEQYNSTYRVVSVLTVLHQDWLNGKEYKCKVSNKALPAPIEKTISKAKGQPREPQVCTLPPSRDELTKNQVSLWCLVKGFYPSDIAVEWESNGQPENNYKTTPPVLDSDGSFFLYSKLTVDKSRWQQGNVFSCSVMHEALHNRYTQKSLSLSP
light: DIVMTQSPLSLPVTPGEPASISCRSSQSLVHSNLNTYLHWYQQKPGQAPRLLIYKVSNRFSGVPDRFSGSGSGTDFTLKISRVEAEDVGVYYCGQGTQVPYTFGQGTKLEIKRTVAAPSVFIFPPSDEQLKSGTASVVCLLNNFYPREAKVQWKVDNALQSGNSQESVTEQDSKDSTYSLSSTLTLSKADYEKHKVYACEVTHQGLSSPVTKSFNRGEC

Each binder was assayed against T1, CD3ε homodimer protein (human, UniProt P07766 23-126, limits assumed) (assay: SPR Biacore T200, CD3ε homodimer on chip;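 note: Light-chain single-residue variant antibodies injected over amine-coupled CD3ε homodimer on a CM4 chip at 25 °C, bound amount divided by that of the GLS3000-containing antibody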).
T1 construct: also called CD3 (CD3ε)
T1 sequence (P07766 23-126 limits assumed): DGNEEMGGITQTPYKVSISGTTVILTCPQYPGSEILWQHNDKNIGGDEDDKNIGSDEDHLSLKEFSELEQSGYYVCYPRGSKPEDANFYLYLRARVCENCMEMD
In the case of B1, the “ratio of amount bound vs unaltered GLS3000” value (shortened to “ratio of amount bound”) is reported as 0.37. With B2 the “ratio of amount bound” value was 0.31. With B3 the “ratio of amount bound” value was 0.34. For B4, the “ratio of amount bound” value was 0.68. B5 was tested, and the “ratio of amount bound” value was 0.63. With B6 the “ratio of amount bound” value was 0.56.
